The target of series [1] is T1, LMM (V1346 through I1941 of D. melanogaster myosin heavy-chain) (Drosophila melanogaster, UniProt P05661).
T1 construct: encompassing V1346 through I1941 of D. melanogaster myosin heavy-chain; made in house; host or cells: E. coli BL-21(DE3) pLysS
Put plainly: Co-sedimentation assay of LMM titrated by WYR. The class given is binding. Here is the method:
A 68.9 kDa 602 aa peptide encompassing V1346 through I1941 of D. melanogaster myosin heavy-chain (herein LMM) with an N-terminal 6× His-tag cloned into pET-23a vector was transformed into E. coli BL-21(DE3) pLysS cells. Cells were grown in Luria broth (LB) containing 100 µg/mL ampicillin and 50 µg/mL chloramphenicol. Upon reaching A600 of 0.8–1.0, culture was chilled on ice for 15 min, and expression was induced by adding IPTG to 0.75 mM and incubating for 16 h at 25 °C with gentle rocking. Induced cells were collected by centrifugation at 10,000 rcf for 10 min and stored as pellets at −40 °C. Pellets were resuspended in lysis buffer described by Korkmaz et al., and lysed by sonication. […] The relative purity of each fraction was assessed via SDS-PAGE stained with Krypton (Thermo Scientific, Rockford, IL, USA). […] Protein concentration was determined via absorbance at 280 nm using an extinction coefficient of 18450 cm^−1 M^−1. […]
Synthetic, 6.6 kDa 52 aa WYR peptide encompassing H84-T136 of D. melanogaster flightin was sourced from Genscript (Piscataway, NJ, USA). Peptide was suspended in ddH2O, filtered through a 0.22 µm Millipore filter, and concentration determined by micro BCA assay and absorbance at 280 nm using an extinction coefficient of 21,430 cm^−1 M^−1. […]

A short description of series [2]: Circular dichroism of LMM alone, secondary structure estimation. The class given is physicochemical. Particulars: for CD maximum wavelength: MRE profile, Figure S9; for helicity, range over methods: without CONTIN, CDSSTR, BeStSel; for α helical content, range over methods: all methods. As for the experimental part:
A 68.9 kDa 602 aa peptide encompassing V1346 through I1941 of D. melanogaster myosin heavy-chain (herein LMM) with an N-terminal 6× His-tag cloned into pET-23a vector was transformed into E. coli BL-21(DE3) pLysS cells. Cells were grown in Luria broth (LB) containing 100 µg/mL ampicillin and 50 µg/mL chloramphenicol. Upon reaching A600 of 0.8–1.0, culture was chilled on ice for 15 min, and expression was induced by adding IPTG to 0.75 mM and incubating for 16 h at 25 °C with gentle rocking. Induced cells were collected by centrifugation at 10,000 rcf for 10 min and stored as pellets at −40 °C. Pellets were resuspended in lysis buffer described by Korkmaz et al., and lysed by sonication. To purify the MHC peptide, the lysate was rocked at 4 °C with Ni-NTA-agarose resin for one hour in a 20 mL column before being rinsed with 8 column volumes of 20 mM imidazole wash-buffer. The resin was then rinsed in two 15 mL portions of each 40- and 80 mM imidazole wash buffer, with 10 min of rocking in each 15 mL portion. The peptide was eluted in six 1 mL fractions and one 12 mL fraction for a total volume of 18 mL 200 mM imidazole elution buffer. All wash and elution buffers are variants of ‘Buffer A’ described by Korkmaz et al. with the following modifications: imidazole concentration was adjusted to 20 mM, 40 mM or 80 mM for wash buffer and to 200 mM for elution buffer. The relative purity of each fraction was assessed via SDS-PAGE stained with Krypton (Thermo Scientific, Rockford, IL, USA). Selected fractions were further purified and concentrated with an Amicon Ultra-15 50k centrifugal filter, and buffer exchanged into 400 mM NaF, 20 mM sodium phosphate pH 7.0, 1 mM TCEP for storage. Protein concentration was determined via absorbance at 280 nm using an extinction coefficient of 18450 cm^−1 M^−1. Densitometry using ImageJ was carried out on Krypton stained gels to ascertain purity of the sample [23] and the peptide identity verified by mass spectrometry.
WYR and LMM samples ranging from 0.5 to 10 µM were prepared in 700 µL of 215 mM NaF, 20 mM Sodium Phosphate, pH 7, 1 mM TCEP. LMM preparations were centrifuged at 10,000 rcf for 10 min and filtered through a 0.22 µm Millipore filter. Blank samples used an equivalent volume of filtrate from the final flow through from LMM concentrators as used in the experimental samples to account for any possible trace contaminant. These blanks were checked against equivalent freshly prepared buffer. A rectangular STARNA quartz cuvette with a pathlength of 0.2 cm was used throughout. Between experiment days the cuvette received a full wash with the provided STARNA detergent in accordance to STARNA protocol. Between samples, 1× 60% EtOH and 3× dH2O rinses were carried out and residual fluid was evaporated with pressurized nitrogen.
Samples were measured at 25 °C using a Jasco J-1700 spectropolarimeter at a scanning-speed of 20 nm/min with a digital integration time (DIT) of 8 s and bandwidth of 0.5–1 nm over six accumulations, minimally from 260–190 nm on continuous scan mode. A minimum n = 6 was used for measurements of the experimental combination of LMM and WYR and an n = 10 for WYR alone in 215 mM NaF, 20 mM Sodium Phosphate, pH 7, 1 mM TCEP. Wavelengths at maxima and minima, as well as θ222/208 and θ192/208 ellipticity ratios were recorded for all spectra. […] While other analysis programs exist, BeStSel is best suited for non-helical proteins of more unusual structure through both its diverse eight element modelling and inclusion of a basis dataset that incorporates proteins with rare secondary structures. BeStSel was most appropriate given the non-helical profile of WYR along with its high aromatic content and presence of proline.
Independent spectra for each peptide were evaluated after subtracting baseline spectra. […]

Series [3] concerns the target T2, Myosin heavy chain, muscle (LMM) 1346-1941 (Drosophila melanogaster, UniProt P05661).
T2 chain: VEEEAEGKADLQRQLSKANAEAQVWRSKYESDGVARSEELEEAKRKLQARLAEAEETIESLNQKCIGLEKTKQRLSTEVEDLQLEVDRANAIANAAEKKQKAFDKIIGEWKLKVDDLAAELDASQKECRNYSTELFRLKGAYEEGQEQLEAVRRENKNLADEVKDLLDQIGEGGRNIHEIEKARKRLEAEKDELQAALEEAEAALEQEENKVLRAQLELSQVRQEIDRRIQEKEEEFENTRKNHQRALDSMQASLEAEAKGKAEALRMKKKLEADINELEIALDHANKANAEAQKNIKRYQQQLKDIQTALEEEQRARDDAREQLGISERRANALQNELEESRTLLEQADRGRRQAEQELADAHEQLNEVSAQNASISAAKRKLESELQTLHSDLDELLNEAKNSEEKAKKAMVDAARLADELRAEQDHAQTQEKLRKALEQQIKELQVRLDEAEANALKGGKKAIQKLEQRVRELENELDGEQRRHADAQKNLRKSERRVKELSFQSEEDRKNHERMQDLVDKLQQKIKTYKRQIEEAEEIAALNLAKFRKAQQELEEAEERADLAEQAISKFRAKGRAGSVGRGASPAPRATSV
The series can be described thus: co-sedimentation.

Ends that are not written are not given here.

T1 sequence (P05661 1-1936 isoform P05661-24): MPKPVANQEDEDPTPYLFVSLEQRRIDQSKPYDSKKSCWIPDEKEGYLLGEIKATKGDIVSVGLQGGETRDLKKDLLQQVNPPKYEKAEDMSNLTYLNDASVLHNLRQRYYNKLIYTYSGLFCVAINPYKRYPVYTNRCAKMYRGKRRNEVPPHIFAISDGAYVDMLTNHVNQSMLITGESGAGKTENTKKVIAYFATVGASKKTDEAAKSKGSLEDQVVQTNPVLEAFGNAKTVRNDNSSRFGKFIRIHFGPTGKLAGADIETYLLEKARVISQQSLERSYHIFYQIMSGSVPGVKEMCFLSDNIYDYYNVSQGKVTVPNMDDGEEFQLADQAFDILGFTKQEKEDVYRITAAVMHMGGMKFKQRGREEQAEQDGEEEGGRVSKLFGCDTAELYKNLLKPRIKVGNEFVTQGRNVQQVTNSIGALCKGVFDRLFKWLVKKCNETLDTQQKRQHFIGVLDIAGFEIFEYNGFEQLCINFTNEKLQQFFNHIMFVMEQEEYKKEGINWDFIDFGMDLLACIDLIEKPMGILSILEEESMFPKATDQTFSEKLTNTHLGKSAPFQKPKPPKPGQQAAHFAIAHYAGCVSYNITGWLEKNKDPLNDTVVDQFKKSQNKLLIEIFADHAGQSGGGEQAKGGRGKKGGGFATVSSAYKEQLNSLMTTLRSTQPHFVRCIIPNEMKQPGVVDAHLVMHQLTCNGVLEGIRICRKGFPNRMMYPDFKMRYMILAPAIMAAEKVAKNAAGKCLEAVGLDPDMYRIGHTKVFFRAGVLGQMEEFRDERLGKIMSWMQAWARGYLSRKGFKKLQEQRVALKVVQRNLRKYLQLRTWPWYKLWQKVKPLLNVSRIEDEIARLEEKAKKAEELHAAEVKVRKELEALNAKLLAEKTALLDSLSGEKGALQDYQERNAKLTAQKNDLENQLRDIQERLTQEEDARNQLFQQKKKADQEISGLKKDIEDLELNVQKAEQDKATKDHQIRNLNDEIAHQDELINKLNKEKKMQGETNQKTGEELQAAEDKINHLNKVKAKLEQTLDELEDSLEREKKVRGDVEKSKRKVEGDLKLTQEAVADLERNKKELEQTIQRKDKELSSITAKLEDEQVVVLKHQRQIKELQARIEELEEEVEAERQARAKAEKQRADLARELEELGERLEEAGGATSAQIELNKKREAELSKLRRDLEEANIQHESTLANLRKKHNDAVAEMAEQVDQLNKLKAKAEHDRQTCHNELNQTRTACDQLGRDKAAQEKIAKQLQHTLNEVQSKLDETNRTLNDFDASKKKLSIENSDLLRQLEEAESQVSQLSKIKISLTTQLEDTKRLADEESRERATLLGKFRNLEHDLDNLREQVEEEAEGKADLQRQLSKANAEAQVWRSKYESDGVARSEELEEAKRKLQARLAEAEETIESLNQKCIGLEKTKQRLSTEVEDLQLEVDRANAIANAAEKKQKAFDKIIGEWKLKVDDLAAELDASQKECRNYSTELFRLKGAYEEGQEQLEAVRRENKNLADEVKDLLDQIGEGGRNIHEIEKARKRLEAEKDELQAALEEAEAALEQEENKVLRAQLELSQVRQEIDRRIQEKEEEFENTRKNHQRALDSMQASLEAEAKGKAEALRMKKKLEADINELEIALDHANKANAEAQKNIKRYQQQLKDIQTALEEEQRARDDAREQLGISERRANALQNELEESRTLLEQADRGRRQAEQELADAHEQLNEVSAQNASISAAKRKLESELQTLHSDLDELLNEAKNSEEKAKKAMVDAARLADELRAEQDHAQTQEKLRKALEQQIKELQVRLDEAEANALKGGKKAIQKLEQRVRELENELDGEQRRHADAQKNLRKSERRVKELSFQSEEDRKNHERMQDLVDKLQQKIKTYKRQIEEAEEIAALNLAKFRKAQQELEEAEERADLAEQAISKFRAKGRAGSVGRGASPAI

The term Kd denotes the concentration at which binding is half-saturated. Consider “HWVRPKFLQYKYMYNYRTNYYDDVIDYIDKKQTGVAREIPRPQTWAERVLRT [WYR]”, for which, in series [1] (Kd 95% CI, 95% confidence interval of Kd, co-sedimentation), the Kd lay within 1.55 to 2.76 µM. The “LMM sedimenting in the presence of WYR” value in series [1] (upon centrifugation at the WYR/LMM ratio used in CD experiments) is ~ 30%.

B1: LMM: 68.9 kDa 602 aa peptide encompassing V1346 through I1941 of D. melanogaster myosin heavy-chain with an N-terminal 6× His-tag (protein, UniProt P05661 1346-1941, looked up, fragment)
chain: VEEEAEGKADLQRQLSKANAEAQVWRSKYESDGVARSEELEEAKRKLQARLAEAEETIESLNQKCIGLEKTKQRLSTEVEDLQLEVDRANAIANAAEKKQKAFDKIIGEWKLKVDDLAAELDASQKECRNYSTELFRLKGAYEEGQEQLEAVRRENKNLADEVKDLLDQIGEGGRNIHEIEKARKRLEAEKDELQAALEEAEAALEQEENKVLRAQLELSQVRQEIDRRIQEKEEEFENTRKNHQRALDSMQASLEAEAKGKAEALRMKKKLEADINELEIALDHANKANAEAQKNIKRYQQQLKDIQTALEEEQRARDDAREQLGISERRANALQNELEESRTLLEQADRGRRQAEQELADAHEQLNEVSAQNASISAAKRKLESELQTLHSDLDELLNEAKNSEEKAKKAMVDAARLADELRAEQDHAQTQEKLRKALEQQIKELQVRLDEAEANALKGGKKAIQKLEQRVRELENELDGEQRRHADAQKNLRKSERRVKELSFQSEEDRKNHERMQDLVDKLQQKIKTYKRQIEEAEEIAALNLAKFRKAQQELEEAEERADLAEQAISKFRAKGRAGSVGRGASPAPRATSV
modifications: N-terminal 6xHis tag
notes: 68.9 kDa 602 aa peptide encompassing V1346 through I1941 of D. melanogaster myosin heavy-chain with an N-terminal 6× His-tag
As for B1, the “fractional alpha helical composition” value is 28.5% in series [2] (208 nm magnitude, [LMM] 2 µM); 28.7% in series [2] (208 nm magnitude, [LMM] 10 µM); 18.1% in series [2] (222 nm magnitude, [LMM] 2 µM); 19.1% in series [2] (222 nm magnitude, [LMM] 10 µM); 14.2% in series [2] (230-240 nm slope, [LMM] 2 µM); 15.3% in series [2] (230-240 nm slope, [LMM] 10 µM). Also, the “fractional alpha helical composition” value is 11.3% in series [2] (BeStSel (190-260), [LMM] 2 µM); 15.6% in series [2] (BeStSel (190-260), [LMM] 10 µM); 8% in series [2] (CDSSTR (SMP180), [LMM] 2 µM); 17.9% in series [2] (CDSSTR (SMP180), [LMM] 10 µM); 8.2% in series [2] (CONTIN (SMP180), [LMM] 10 µM); 19% in series [2] (K2D, [LMM] 2 µM). Besides, the “fractional alpha helical composition” value in series [2] (K2D, [LMM] 10 µM) is reported as 22%. The CD maximum wavelength in series [2] (LMM 2 µM) is on record as 193-194 nm; in series [2] (LMM 10 µM (higher concentration)), 197-198 nm. Further, the values for the 222/208 ratio in series [2] ([LMM] 2 µM (low)) and in series [2] ([LMM] 10 µM (high)) were 1.08 and 1.17, respectively. The results for the “helicity, range over methods” value in series [2] (high concentration) and in series [2] (low concentration) were 15.3 to 28.7% and 14.2 to 28.5%, respectively. In addition, the “α helical content, range over methods” value in series [2] (higher LMM concentration (10 µM)) is recorded as 8.2–28.7%; in series [2] (lower LMM concentration (2 µM)), 8–28.5%.

B2: Flightin (WYR domain) 84-136 (protein)
chain: HWVRPKFLQYKYMYNYRTNYYDDVIDYIDKKQTGVAREIPRPQTWAERVLRTR
B2 returned a Kd in series [3] of 2.06 µM.

These data come from paper PMC8301185, “Secondary Structure of the Novel Myosin Binding Domain WYR and Implications within Myosin Structure” (Biology, 2021).
